EP4631972A1, “SITE-SPECIFIC COUPLED PEGYLATED INTERLEUKIN-2 MUTANT WITH RECEPTOR AFFINITY PREFERENCE AND USE THEREOF” (priority 2022, dated 2024)

Tests used:
IL-2βγ dual receptor = molecular target: T1, IL-2βγ dual receptor (Homo sapiens, UniProt P14784+P31785); assay: STAT5 reporter gene assay, activation of IL-2βγ dual receptor in 293EC18/βγ/JAK3/STAT5 cells; format: cell-based; conditions: for activation effect on the IL-2Rβγ dual receptor compared with control IL-2 N88R: Figure 1, concentration of 65.2 nM
T1 construct: Uniprot P14784 1Met-551Val was constructed into plasmid pcDNA3.1(+); Uniprot P31785 1Met-551Thr was constructed into plasmid pcDNA3.1/zeo; expressed in transfected cells; host or cells: 293EC18 cells, transient co-transfection with pCMV/JAK3 and PGL4.52/STAT5RE
T1 sequence (P14784 27-551): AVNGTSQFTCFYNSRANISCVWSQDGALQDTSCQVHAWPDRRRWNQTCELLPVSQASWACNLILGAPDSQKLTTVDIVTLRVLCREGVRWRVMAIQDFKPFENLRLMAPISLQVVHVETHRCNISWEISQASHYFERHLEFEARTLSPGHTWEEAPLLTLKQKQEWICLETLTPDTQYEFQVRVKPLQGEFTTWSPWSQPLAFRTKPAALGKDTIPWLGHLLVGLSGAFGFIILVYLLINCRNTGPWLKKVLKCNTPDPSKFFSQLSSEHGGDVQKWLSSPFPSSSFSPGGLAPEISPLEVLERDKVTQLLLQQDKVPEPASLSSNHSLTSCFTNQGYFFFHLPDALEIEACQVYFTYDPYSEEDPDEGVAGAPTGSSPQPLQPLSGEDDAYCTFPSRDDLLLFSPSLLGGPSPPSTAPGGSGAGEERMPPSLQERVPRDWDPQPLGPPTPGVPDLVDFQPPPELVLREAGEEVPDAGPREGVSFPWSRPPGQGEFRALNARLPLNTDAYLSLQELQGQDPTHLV
T1 sequence (P31785 23-369): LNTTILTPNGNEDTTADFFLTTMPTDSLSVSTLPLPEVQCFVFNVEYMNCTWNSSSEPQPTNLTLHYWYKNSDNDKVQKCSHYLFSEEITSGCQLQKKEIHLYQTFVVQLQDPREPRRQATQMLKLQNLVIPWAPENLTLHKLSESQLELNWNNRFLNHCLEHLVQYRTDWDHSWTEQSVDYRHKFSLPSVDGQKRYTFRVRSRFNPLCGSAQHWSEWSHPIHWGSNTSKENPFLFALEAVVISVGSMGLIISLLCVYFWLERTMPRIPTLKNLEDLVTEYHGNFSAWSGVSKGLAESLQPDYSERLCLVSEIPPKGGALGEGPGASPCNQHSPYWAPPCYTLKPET
Method: Since the binding of IL-2 to the β and γ subunits of its receptor induces STAT5 phosphorylation, which subsequently leads to dimerization and translocation into the nucleus to promote target gene transcription, this example evaluates the ability of the mutant IL-2 polypeptides to induce signaling through the IL-2 receptor by measuring STAT5 phosphorylation.
Adherent 293EC18 cells were cultured to about 90% confluence using conventional methods. After trypsin digestion, the cells were resuspended in cell culture medium to 4×10^5 cells/ml and 50 µl/well were added to two 96-well cell culture plates. After incubation at 37°C for 48 h, the supernatant was aspirated and fresh culture medium was added. According to the manufacturer's method, four plasmids, pcDNA3.1(+)/CD122 (constructed by Nanjing Novoacine Biotechnology Co., Ltd, Uniprot P14784 1Met-551Val was constructed into plasmid pcDNA3.1(+)), pcDNA3.1/puro/CD132 (constructed by Nanjing Novoacine Biotechnology Co., Ltd, Uniprot P31785 1Met-551Thr was constructed into plasmid pcDNA3.1/zeo), pCMV/JAK3 (Sino Biological), and PGL4.52/STAT5RE (Promega) were transiently transfected into 293EC18 cells using a cationic transfection reagent (ExFect Transfection Reagent, Vazyme). The obtained cells were named 293EC18/βγ/JAK3/STAT5 cells. Alternatively, five plasmids, pcDNA3.1/zeo/CD25 (constructed by Nanjing Novoacine Biotechnology Co., Ltd, Uniprot P01589 1Met-551Ile constructed into plasmid pcDNA3.1/zeo), pcDNA3.1(+)/CD122 (constructed by Nanjing Novoacine Biotechnology Co., Ltd, Uniprot P14784 1Met-551Val constructed into plasmid pcDNA3.1(+)), pcDNA3.1/puro/CD132 (constructed by Nanjing Novoacine Biotechnology Co., Ltd, UniprotP31785 1Met-551Thr constructed into plasmid pcDNA3.1/zeo), pCMV/JAK3 (Sino Biological), and PGL4.52/STAT5RE (Promega) were transiently transferred into 293EC18 cells, and the obtained cells were named 293EC18/αβγ/JAK3/STAT5 cells. The transfected cells were incubated at 37°C and 5% CO2 for another 6 h.
Each IL2 mutant was diluted 4-fold in a gradient manner using PBS buffer, with a total of 11 dilutions and a starting concentration of 65.2 nM. In the above cell culture plates, 50 µl/well of each of the serially diluted IL2 mutant samples was added in duplicate. Then, the cell culture plate was placed in an incubator at 37°C and 5% CO2 for overnight culture. The cell culture plates were kept at room temperature for 20 ± 5 minutes to equilibrate the plates to room temperature. Bio-Lite Luciferase Assay System reagents that have been mixed and equilibrated to room temperature were added to the cell culture plates to be tested at 100 µl/well, placed on a microplate shaker at 450 rpm to mix for 2 minutes, then allowed to stand at room temperature for 3 minutes, and the chemiluminescence value was detected with an enzyme plate reader.
The logarithm of the final concentration of each IL-2 mutant sample was used as the X-axis, and the chemiluminescence detection results were used as the Y-axis for plotting. Data were analyzed using the four-parameter logistic regression model in GraphPad Prism 9. Table 2 EC50 values for the activation of the IL-2αβγ triple receptor by PEG-IL-2 mutants as determined by a reporter gene assay.
According to the method of Example 3, each polyethylene glycol-modified mutant obtained in this example was assessed for the binding preference to the IL2 receptors by a reporter assay. Table 4 EC50 values for the activation of the IL-2αβγ triple receptor by PEG-IL-2 mutants as determined by a reporter gene assay.
Referring to Example 3, the phosphorylation of STAT5 was used to evaluate the ability of the PEG-modified IL-2 mutants having a non-natural amino acid mutation prepared in Example 14 to induce signal transduction via the IL-2 receptor. […]

[1] = Pharmacokinetic study in cynomolgus monkeys; conditions: cynomolgus monkey
Method: Blood was collected before and after administration (4h, 8h, 24h, 48h, 72h, 120h, 168h, 240h, 336h) in the first cycle and after administration (8h, 24h, 48h, 72h, 120h, 168h, 240h) in the second cycle to detect plasma drug concentration.

[2] = female, first-cycle dosing 50 µg/kg s.c.
[3] = female, second-cycle dosing 400 µg/kg s.c.
[4] = male, first-cycle dosing 50 µg/kg s.c.
[5] = male, second-cycle dosing 400 µg/kg s.c.

B1: 80K-1PEG-IL2-N88R-N77C: IL-2 mutant N88R, N77C, conjugation site 77, PEG molecular weight 80kD (conjugate)
chain: APTSSSTKKTQLQLEHLLLDLQMILNGINNYKNPKLTRMLTFKFYMPKKATELKHLQCLEEELKPLEEVLNLAQSKC(PEG 80 kDa)FHLRPRDLISRINVIVLELKGSETTFMCEYADETATIVEFLNRWITFSQSIISTLT
- activation effect on the IL-2Rβγ dual receptor compared with control IL-2 N88R (IL-2βγ dual receptor): lower activation effects
- activation effect on the IL-2Rβγ dual receptor compared with control IL-2 N88R (IL-2βγ dual receptor; listed as 80k-PEG-IL2-N88R-N77C): the most significant reduction in activation ability
- activation effect on / affinity to IL-2Rβγ dual receptor compared with control IL-2 N88R (IL-2βγ dual receptor; Figure 2, all concentrations): further reduced the affinity to IL-2Rβγ
- AUC inf [1, 2]: 186.0556 µg·h/mL
- AUClast [1, 2]: 147.9248 µg·h/mL
- CL [1, 2]: 0.27
- Cmax [1, 2]: 902.5692 ng/mL
- MRT [1, 2]: 122.9092 h
- Tmax [1, 2]: 8 h
- AUC inf [1, 3]: 2286.053 µg·h/mL
- AUClast [1, 3]: 1481.823 µg·h/mL
- CL [1, 3]: 0.17
- Cmax [1, 3]: 8785.158 ng/mL
- MRT [1, 3]: 103.1 h
- Tmax [1, 3]: 8 h
- AUC inf [1, 4]: 278.1948 µg·h/mL
- AUClast [1, 4]: 184.7575 µg·h/mL
- CL [1, 4]: 0.18
- Cmax [1, 4]: 824.4732 ng/mL
- MRT [1, 4]: 142.9087 h
- Tmax [1, 4]: 48 h
- AUC inf [1, 5]: 2635.62 µg·h/mL
- AUClast [1, 5]: 1885.448 µg·h/mL
- CL [1, 5]: 0.15
- Cmax [1, 5]: 11432.93 ng/mL
- MRT [1, 5]: 102.1 h
- Tmax [1, 5]: 48 h
